Publication PMC6850173 (Molecular Microbiology, 2019)
Where a chain is given by its changes, count along the chain named. Numbers in names are those of the source.

Assays:
crystal structure = target: the molecule itself; experiment: crystal structure
[1] = substrate: Cc1cc2nc3c(=O)[nH]c(=O)nc-3n(C[C@H](O)[C@H](O)[C@H](O)COP(=O)(O)OP(=O)(O)OC[C@H]3O[C@@H](n4cnc5c(N)ncnc54)[C@H](O)[C@@H]3O)c2cc1C; experiment: HPLC of MTA-CoA formation, initial rates, nonlinear fit; assay type: biochemical, Roseovarius nubinhibens; conditions: MMPA-CoA as substrate, pH 9.0, 40°C, varied: cofactor
[2] = substrate: CSCCC(=O)SCCNC(=O)CCNC(=O)[C@H](O)C(C)(C)COP(=O)(O)OP(=O)(O)OC[C@H]1O[C@@H](n2cnc3c(N)ncnc32)[C@H](O)[C@@H]1OP(=O)(O)O; experiment: as above; assay type: biochemical, Roseovarius nubinhibens; conditions: FAD, pH 9.0, 40°C

B1: DmdB Lys523Ala mutant (Ruegeria lacuscaerulensis ITI_1157) (enzyme, UniProt P0DX84 1-539, looked up)
chain: MLGQMMTQPLLISSLIDHAARYHGQTEIVSVETDGTVTRTNWGEIAANARRMGSALTKLGLQPQDRIGTLAWNNRRHLEIYYAASGAGFVCHTINPRLFPEQLVYIINHAQDRVLFFDATFLPLVAAIRDQLTEVKHFVLMGPRNEDALQQIPGLEFYDELIETGDTDFEWPVFDENTASSLCYTSGTTGHPKGVLYSHRSTVLHSFASNTRDVIGYSAMDVVMPVVPMFHVNAWGSPYGCAMSGAQMVLPGPDLHGEALVNLIDTYGVTLAMGVPTIWQGLLAHAAKCGTKLESLERTVIGGAACPPSMIATFREKYGVDTVHAWGMSEMSPLGTANIPLAKHRKLPIEEQHKLRENQGRPPFGVELKIVDDDGNDLPHDGVTQGDLMVRGHWVLDSYFQLKDQELLQDGWFATGDVATLDPDGYMTIRDRSKDIIKSGGEWISSVELENIAVAHPKLATAAVIGVPHPKWDERPLLVAVKAEGEDPSEAELLEFFDGKIAKWQVPDKVVFVDALPLNATGAVLKRKLRDEFKDALTG
**Q.** Does B1 bind (crystal structure)?
**A.** binds

B2: DmdC (ISM) (Roseovarius nubinhibens ISM; T170A) (protein)
chain: MTRYTAPTQDIQYLLHDVLDVANDPTPGYAELEPDFTSAVLEEAGKIAGEVLHPLNAVGDQEGCVLENGVVRPPKGFKEAFDQVREGGWTALDLPEQYGGQNMPYLLGTAVGEMFSGANQAFTMYQGLTHGAASAILVHGTDQQKDTYLPKMFSCDWTGTMNLTEPHCGADLGLMRSKAVPQDDGSYAISGQKIFISAGEHDMAENIIHLVLAKIPGGPEGIKGVSLFIVPKFLVKEDGSLGERNGVKCSKIEEKMGIHGNSTCVMDYDGAKGWLLGEEHKGMRAMFTMMNEARIGVGMQGLAQAEVAYQNALDYARDRLQGRSVTGVENPDGPADPLIVHPDIRRNLLDQKSFIEGARAFLLWGAQMIDRAERGKDEAAHGMVSLLTPVIKGFLTDEGYDMTVQAQQVYGGHGYIEETGMSQFTRDARIAMIYEGANGVQALDLVGRKLAQDGGKHVMAFFDLVKGFIKEAGTDGAMAEFTEPLKSASKDLQSAGMFFMQNGMKNPNAALAGSYDFMHLFGHVCLGLMWGRMAEASLKALAEGRGDANFHETKLATARFYMTRRLPATKLHLARIESGADPVMALDADRF
**Q.** B2 was tested. Which Km [1] did it give?
**A.** 0.1125 ± 0.0045 mM

B3: DmdC (ISM) (Roseovarius nubinhibens ISM; R284A) (protein)
chain: B2 chain with A170T, R284A
**Q.** Which Km [2] does the source give for B3 here?
**A.** 12.4 ± 1.0 mM
